Assays:
[1] = target: Neurotoxin heavy chain (H-chain) (Clostridium botulinum, UniProt P0DPI0 449-1296); assay: ELISA, IgG on immobilised H-chain
[2] = target: neuronal cell binding domain of the heavy chain C-terminal end (Hc, E. coli recombinant protein) (Clostridium botulinum, UniProt P0DPI0 871-1296); assay: immunoblotting of Hc after SDS-PAGE (denatured antigen)
[3] = target: Neurotoxin light chain (L-chain) (Clostridium botulinum, UniProt P0DPI0 2-448); assay: ELISA, IgG on immobilised L-chain

Row | Binder | binding result [1] | binding result [2] | binding result [3]
1 | NT-221 IgG type antibody (antibody, V domains shown) VH: EVQLVESGPTLVKPTQTLTLTCTFSGFSLRTSGVAVGWIRQPPGKALEWLALIYWDDDKRYSPSLKSRLTITKDTSKNQVVLTMTNMDPVDTATYYCAHNTGTDLYFDWAFDYWGQGTLVTVSS VL: QSVLTQPPSVSGAPGQRVTISCTGSSSNIGAGYDVHWYQQLPGTAPKLLIYGNSNRPSGVPDRFSGSKSGTSASLAITGLQAEDEADYYCQSYDSSLSGSVFGGGTKLTVLG | no binding (tested: 1 µg/ml) | no binding (tested: 50 µg/ml) | no binding (tested: 1 µg/ml)
2 | BT-015 IgG type antibody (antibody, V domains shown) VH: QVQLQQSGAEVKKPGASVKVACKASRYNFSAYYMHWVRQAPGQGPEWMGWINPHSGVTTYAQKFQGRVTMTRDTSIGTAYMELSRLRSDDTALYYCARGFGSSCSDTSCSFSGLDVWGQGTTVTVSS VL: QSALTQPASVSGSPGQSITISCTGTSSDVGGYDYVSWYQQHPGEAPKLLIYDVTNRPSGVSSRFSGSKSGNTASLTISGLQPEDEADYYCTSYTSSVTYVFGSGTTLTVLS | – | no binding (tested: 50 µg/ml) | no binding (tested: 1 µg/ml)
3 | NT-320 IgG type antibody (antibody, V domains shown) VH: EVQLVESGGGVVQPGKSLRLSCAASGFTFSSYGMHWVRQAPGKGLEWVAVISYPGTNEYYTDSVKGRFTISRDNSKNTLYLQMNSLRAEDTAVYYCARGDIHSGYSFGGGDYGLDVWGQGTTVTVSS VL: DIQMTQSPSTLSASVGDRVTITCRASQSISGWLAWYQQKPGKAPKLLMYKASSLESGVPSRFSGSGSGTEFTLTISSLQPDDFATYYCQQYNNFPWTFGQGTKVEFK | – | no binding (tested: 50 µg/ml) | –
4 | BT-175 IgG type antibody (antibody, V domains shown) VH: QITLKESGPTLVKPTQTLTLTCTFSGFSLRTSGVGVGWIRQPPGKAPEWLALIYWDGDKRFSPSLKSRLTINKDISKNQVVLTLTNLDPVDTGTYYCAHSFYHGSQSPGWFDPWGQGTLVTVSS VL: QSVLTQPPSVSAAPGQKVTISCSGSSSNIGNNYVSWYQQLPGTAPKLLIYDNNKRPSGIPDRFSGSKSGTSATLGITGLQTGDEADYYCGTWDSSLSAVFGGGTKLTVLG | no binding (tested: 1 µg/ml) | no binding (tested: 50 µg/ml) | –
5 | NT-539 IgG type antibody (antibody, V domains shown) VH: not shown VL: DIQMTQSPSAVSASLGDRVTITCRASQGINPFLAWFQQKPGKVPERLIYTASRLQSGVPSRFSGSGTGTEFNLTISSLHPEDFATYYCLQHKHYPWTFGQGTKVERK | – | no binding (tested: 50 µg/ml) | no binding (tested: 10 µg/ml)

Reference: patent US20110014211A1 (INSTITUTE FOR ANTIBODIES, published 2011)
